Measurements reported in paper PMC10235961.

Target: OleTPRN, CYP152 decarboxylase from Rothia nassimurium forming terminal (poly-unsaturated) olefins, wild type (Rothia nassimurium)
Test: SEC

stoichiometry N: 2
Substance: OleTPRN, CYP152 decarboxylase from Rothia nassimurium forming terminal (poly-unsaturated) olefins, wild type (enzyme)
